Test results taken from paper PMC10134200 (Cell Insight, 2023).

Target: GST-CaM (glutathione S-transferase-tagged calmodulin) (UniProt P0DP23 1-149)
Assay: pull-down

B1: His-P3CP (His-tagged TRPP3 C-terminal peptide I560-K660) (domain or fragment)
chain: INDTYSEVKEELAGQKDELQLSDLLKQGYNKTLLRLRLRKERVSDVQKVLQGGEQEIQFEDFTNTLRELGHAEHEITELTATFTKFDRDGNRILDEKEQEK
binding result: binds
